This note sets out measurements from US20090280488A1 (NATIONAL UNIVERSITY CORPORATION TOKYO MEDICAL AND DENTAL …, published 2009).

Sequences and labels used below:
B1: HMGB2-EGFP protein (rat HMGB2 expressed from pEGFP-N1-HMGB2) (other)
chain: MGKGDPNKPRGKMSSYAFFVQTCREEHKKKHPDSSVNFAEFSKKCSERWKTMSAKEKSKFEDLAKSDKARYDREMKNYVPPKGDKKGKKKDPNAPKRPPSAFFLFCSEHRPKIKSEHPGLSIGDTAKKLGEMWSEQSAKDKQPYEQKAAKLKEKYEKDIAAYRAKGKSEVGKKGPGRPTGSKKKNEPEDEEEEEEEEDDEDEEEEDEDEE
notes: Expressed in HeLa cells by transfection; precipitated from the lysate with anti-HMGB or anti-EGFP antibody; The order HMGB2 then EGFP follows from the vector pEGFP-N1; also called HMGB-EGFP protein; not shown: EGFP and linker encoded by pEGFP-N1 (Clontech)
B3: HMGB1-EGFP protein (rat HMGB1 expressed from pEGFP-N1-HMGB1) (other)
chain: MGKGDPKKPRGKMSSYAFFVQTCREEHKKKHPDASVNFSEFSKKCSERWKTMSAKEKGKFEDMAKADKARYEREMKTYIPPKGETKKKFKDPNAPKRPPSAFFLFCSEYRPKIKGEHPGLSIGDVAKKLGEMWNNTAADDKQPYEKKAAKLKEKYEKDIAAYRAKGKPDAAKKGVVKAEKSKKKKEEEDDEEDEEDEEEEEEEEDEDEEEDDDDE
notes: Expressed in HeLa cells by transfection; precipitated from the lysate with anti-HMGB or anti-EGFP antibody; The order HMGB1 then EGFP follows from the vector pEGFP-N1; HeLa cells also carry endogenous human HMGB1; also called HMGB-EGFP protein; not shown: EGFP and linker encoded by pEGFP-N1 (Clontech)

What all share (assay): co-immunoprecipitation from HeLa cell lysate with anti-HMGB or anti-EGFP antibody, blot with CAG53b
In test [1] the target is T1, normal ataxin-1 (AT1-30Q) (human, UniProt P54253 1-815).
T1 construct: mature; Polyglutamine tract of 30 glutamines; also called normal AT1; normal polyglutamine protein
T1 sequence (looked up): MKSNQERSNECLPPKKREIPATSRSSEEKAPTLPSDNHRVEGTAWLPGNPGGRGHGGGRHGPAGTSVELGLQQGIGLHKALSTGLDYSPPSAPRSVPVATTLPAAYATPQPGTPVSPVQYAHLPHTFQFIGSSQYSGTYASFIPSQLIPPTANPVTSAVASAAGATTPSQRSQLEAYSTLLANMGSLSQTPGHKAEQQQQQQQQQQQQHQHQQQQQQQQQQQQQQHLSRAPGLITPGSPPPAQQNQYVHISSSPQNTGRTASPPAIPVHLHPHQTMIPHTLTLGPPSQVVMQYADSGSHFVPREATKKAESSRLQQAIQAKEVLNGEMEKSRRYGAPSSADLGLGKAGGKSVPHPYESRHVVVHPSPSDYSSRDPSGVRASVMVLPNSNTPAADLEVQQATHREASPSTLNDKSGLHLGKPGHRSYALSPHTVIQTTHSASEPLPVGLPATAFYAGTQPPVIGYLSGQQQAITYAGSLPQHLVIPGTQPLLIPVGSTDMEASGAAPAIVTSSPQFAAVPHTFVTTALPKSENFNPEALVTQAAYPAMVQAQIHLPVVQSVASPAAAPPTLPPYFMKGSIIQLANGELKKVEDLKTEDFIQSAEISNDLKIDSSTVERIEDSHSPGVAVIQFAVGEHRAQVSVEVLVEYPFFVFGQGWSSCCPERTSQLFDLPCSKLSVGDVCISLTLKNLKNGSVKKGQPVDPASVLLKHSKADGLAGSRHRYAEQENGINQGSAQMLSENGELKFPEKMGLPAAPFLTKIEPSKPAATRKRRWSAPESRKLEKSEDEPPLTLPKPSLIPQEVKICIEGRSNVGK
On the procedure:
(§1) HeLa cells (1×10⁶) in a 10 cm dish were transfected with pEGFP-N1, pEGFP-N1-HMGB1 or pEGFP-N1-HMGB2 using SuperFect (invitrogen). The cells were also infected with adenoviral vectors (AxCAwt, AxCA-HMGB1, AxCA-HMGB2, AxCA-htt20Q, AxCA-htt111Q, AxCA-AT1-30Q or AxCA-AT1-82Q) in the same manner as described above. Immunoprecipitation was performed according to a known technique (Okazawa, H. et al., Neuron. 34, 701-713. (2002)). Specifically, collected HeLa cells were incubated at 4° C. in TNE buffer (10 mM Tris-HCl (pH7.8), […], 0.15M NaCl, 1 mM EDTA) for 1 hour and were then centrifuged at 17,400×g for 20 min. The supernatant was preincubated with protein G-Sepharose (Amersham Biosciences) at 4° C. for 2 hours and then centrifuged. The supernatant was incubated with anti-HMGB1 antibody (1:600, BD Biosciences), anti-HMGB2 antibody (1:600, BD Biosciences) or anti-GFP antibody (1:600, Clontech) overnight and was subsequently incubated with protein G-Sepharose for 2 hours. The protein G beads were collected by centrifugation (2,000×g) for 5 min and washed 5 times with TNE buffer. The bound proteins were eluted with a sample buffer, separated by SDS-PAGE, and blotted with CAG53b antibody (Scherzinger, E. et al., Cell. 90, 549-558. (1997)).
(§2) A plasmid pEGFP-N-1-HMGB1/2 was transfected into Hela cells and the cells were infected with an adenoviral vector designed to express normal or mutant polyglutamine protein. The cells expressed normal or mutant polyglutamine protein. The expression levels of polyglutamine protein and HMGB-EGFP protein were checked by Western blot using CAG53b antibody and anti-GFP antibody (left panel in FIG. 5). Immunoprecipitation was performed using anti-HMGB or anti-EGFP antibody. […] The pull-down assay using HeLa cells expressing polyglutamine protein indicated interaction between mutant polyglutamine protein and HMGB protein (FIG. 6).

The target of test [2] is B1. As for the experimental part: as §1, §2
Test [3] addresses B3. On the procedure:
as §1, §2

Regarding B1, the binding result in test [1] was “no binding”.

B2: normal huntingtin (Htt20Q) (other, human, UniProt P42858 1-88, looked up)
chain: MATLEKLMKAFESLKSFQQQQQQQQQQQQQQQQQQQQQPPPPPPPPPPPQLPQPPPQAQPLLPQPQPPPPPPPPPPGPAVAEEPLHRP
notes: domain: exon I; Only exon I of huntingtin, with 20 glutamines; also called normal Htt; normal polyglutamine protein
For the molecule B2, the binding result in test [2] and in test [3] was “no binding” in each case.

In the case of B3, the binding result in test [1] is on record as “no binding”.
